The values below come from patent US20150141617A1, “PRODUCTION AND PURIFICATION OF ACTIVE EUKARYOTIC FORMYLGLYCINEGENERATING ENZYME (FGE) VARIANTS” (Universität Bielefeld, priority 2013, published 2015).

In series [1] the target is FGE-HA (human formylglycine generating enzyme, wild type, C-terminal HA tag, expressed from pBI-FGE-HA in mammalian cells) (human) (UniProt Q8NBK3). The experiment in a line: cell-based or functional assay.
Series [2] in a line: Stability of purified recombinant FGE upon storage (SDS-PAGE, Coomassie staining or western blotting). Type of series: physicochemical. On the procedure:
Purified enzymes are preferably stored frozen at −20° C. or −80° C., but it is known that the freeze-thaw cycle can lead to a decrease in the stability of proteins and/or accompanied loss of enzymatic activity. To minimize this effect, it is common to add stabilizing agents to preserve the stability and functionality of proteins during long-term storage. Analyses of conditions that affect the stability of purified recombinant fl-FGE-R69A/R72A and Δ72-FGE-wt were performed. The stability was assessed by analyzing the purified protein by SDS-PAGE and subsequently visualized by Coomassie staining or western blotting using FGE anti-serum as described above.
Generation of truncated FGE was increasingly detected upon removing the imidazole by size exclusion chromatography (Panel SEC, FIG. 17A). To gain further insights, aliquots of the purified fraction from size exclusion chromatography were incubated at 4° C. for either 3.5 h or 20 h in the presence of various additives like NaCl, imidazole, arginine and glycerol and later assessed by western blot using FGE anti-serum.

Series [3] deals with 23-aa long substrate peptide Ac-MTDFYVPVSLCTPSRAALLTGRS-NH2. The series is described as follows: In vitro FGE activity assay (MALDI-ToF MS) with purified recombinant FGE from insect cells. The settings on record: for DTT concentration of maximal activity: 0-15 mM DTT, pH 9.3, 15 min 37° C.; for pH of maximal activity: MTGC buffer pH 6.5-11.0; for FGly generation in substrate peptide in presence of DTT: pH 9.3, 37° C.; for dependence of activity on reducing agent (DTT or GSH): in vitro; for specific activity: purified from Baculovirus expression system (Example 7). It counts as biochemical. On the procedure: a) fl-FGE-R69A/R72A (SEQ ID NO: 4) is active and e.g. generates FGly within a 23-aa long substrate peptide 16 pmol of the 23 amino acid (aa) long peptide Ac-[…]-NH2 (SEQ ID NO:46) were incubated with 12 ng of fl-FGE-R69A/R72A for 20 min at 37° C. under assay conditions (50 mM Tris, 67 mM NaCl, 15 μM CaCl2, 0.33 mg/mL BSA, 2 mM DTT, pH 9.3 in a total volume of 30 μL).
The reaction was stopped by adding 3 μL of 20% trifluoroacetic-acid (TFA), immediately followed by vortexing and by a short centrifugation at 10000×g. The peptide was purified and concentrated by C18-Zip-Tip treatment. Therefore the Zip-Tip was prepared by pipetting three times 10 μL of 50% acetonitrile, 0.05% TFA in water and three times 10 μL 0.1% TFA in water. The 33 μL sample was pipetted 10 times up and down. The bound peptide was washed by pipetting 10 times 10 μL 0.1% TFA in water and was eluted in 10 μL 50% acetonitrile, 0.05% TFA in water by pipetting 10 times up and down. For MS-analysis the following matrix was prepared freshly: 40 μL of a saturated α-cyano-hydroxycinnamic acid solution in aceton were added to 10 μL of a solution containing 10 mg/mL nitrocellulose in 50% Aceton/50% Isopropanol (v/v). 0.5 μL of the matrix were spotted onto a polished steel target and 1 μL of the purified sample was added. The dried sample spot was analyzed by MALDI-ToF mass spectrometry using the Ultra flextreme spectrometer from Bruker Daltronics. The cysteine containing substrate peptide (2526.28 [M+H]^+) and the FGly containing product peptide (2508.29 [M+H]^+) were detected.
b) fl-FGE-R69A/R72A (SEQ ID NO:4) is able to generate FGly by using GSH as reductant:10 times stock solutions of DTT and GSH were prepared in 20 mM Tris pH 9.3. For the reaction, 13 ng of Baculo-fl-FGE were incubated with 16 pmol of the 23 aa-long substrate peptide, 2 mM DTT or 5 mM reduced glutathione for 15 min at 37° C. under assay conditions (50 mM Tris, 67 mM NaCl, 15 μM CaCl2, 0.33 mg/mL BSA, pH 9.3 in a total volume of 30 μL). The reactions were stopped and prepared further for MS-analysis as described above. The ratio of the intensity of the FGly-product peptide divided by the sum of the substrate and product intensities multiplied with 100 yields %-turnover of the substrate peptide. Based on that, specific activities were calculated.
The dependence of FGly-generating activity of recombinant fl-FGE-R69A/R72A on the reducing agents DTT and GSH were analyzed at pH 9.3 under standard assay conditions (FGE and substrate peptide were incubated at 37° C. in 50 mM Tris/HCl, 67 mM NaCl, and 0.33 mg/ml BSA in 30 μl volume. The reaction was started by addition of substrate) using a MALDI-mass spectrometry based in vitro activity assay (Ennemann et al., 2013 and FIG. 7).
The pH-dependence for in vitro activity of recombinant fl-FGE-R69A/R72A and Δ72-FGE-wt was analyzed under optimal DTT and GSH concentrations. Accordingly, the activity of recombinant fl-FGE-R69A/R72A in the presence of 2 mM DTT, under standard assay conditions, was measured in buffers of pH ranging from pH 6.5 to 11.0 (FIG. 19A). […] In the presence of 5 mM GSH, the maximal activity was also observed at pH 9.3 and a very similar activity profile ranging from pH 7.5 to 11 (FIG. 19B). […] In summary, fl-FGE-R69A/R72A requires less alkaline conditions for optimum activity than Δ72-FGE-wt.

Series [4] has as its target T1, 23 amino acid substrate peptide Ac-MTDFYVPVSLCTPSRAALLTGRS-NH2 (SEQ ID NO: 46).
T1 chain: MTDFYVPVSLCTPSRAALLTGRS

In series [5] the test system is cysteine-containing substrate peptide. The experiment in a line: In vitro FGE activity assay with conditioned media from CHO-FD11 cells. The following applies: 5 mM GSH vs 2 mM DTT, pH 9.3, conditioned media. Type of series: biochemical. The method, then:
FGE activity was assayed using conditioned media that contained either secreted fl-FGE (obtained from CHO-FD FGE-His6 cells) or Δ72-FGE (obtained from CHO-FD Tet-On cells after transient co-transfection with pBI-FGE-HA and pIRES-Furin constructs). After expression for 48 h at 1% or 2.5% FCS containing DMEM, the medium was collected and centrifuged at 500×g for 5 min. The supernatant was analyzed by SDS-PAGE and western blotting and aliquots were directly used for activity testing.
The activity assay was performed in triplicates with three sets of conditioned media at pH 9.3 under standard conditions as described earlier (4) with some modifications; no BSA was added to the reaction mixture and 2 mM DTT or 5 mM GSH were used as reducing agents.
The inventors have recently shown that the N-terminal part of FGE (residues 34-68) is essential to activate sulfatases in vivo (12). By contrast, the N-terminal extension was not required for in vitro FGly-generating activity of purified secreted Δ72-FGE. […] To assess the physiological consequence of the N-terminal truncation by furin on the function of FGE, the inventors analyzed the FGly-generating activity of the processed and the unprocessed forms of secreted FGE in the presence of glutathione (GSH), a physiological reductant, or DTT serving as a control. […]

With “human furin (Gene ID 5045), expressed from a pIRES construct in CHO-FD11 cells (from UniProt P09958 108-794)”, the share of Δ72-FGE in secretions of CHO-FD11 Tet-On cells co-expressing FGE and the PC (western blot) in series [1] worked out at 100%.

B1: dimeric FGE: disulfide-bridged dimeric form of recombinant fl-FGE-R69A/R72A separated by size exclusion chromatography (protein)
chain: ADEFSQEAGTGAGAGSLAGSCGCGTPQRPGAHGSSAAAHAYSAEANAPGPVPGERQLAHSKMVPIPAGVFTMGTDDPQIKQDGEAPARRVTIDAFYMDAYEVSNTEFEKFVNSTGYLTEAEKFGDSFVFEGMLSEQVKTNIQQAVAAAPWWLPVKGANWRHPEGPDSTILHRPDHPVLHVSWNDAVAYCTWAGKRLPTEAEWEYSCRGGLHNRLFPWGNKLQPKGQHYANIWQGEFPVTNTGEDGFQGTAPVDAFPPNGYGLYNIVGNAWEWTSDWWTVHHSVEETLNPKGPPSGKDRVKKGGSYMCHRSYCYRYRCAARSQNTPDSSASNLGFRCAADRLPTMDSGRGSHHHHHHH
Turning to B1, the “stability of dimeric vs monomeric form” value in series [2] is recorded as “more stable than monomeric fl FGE forms”. Moreover, the “DTT concentration of maximal activity” value in series [3] is 0.1 to 1 mM. The “DTT concentration for optimal activity under in vitro conditions” value in series [3] (pH 9.3) was 0.1 to 2 mM.

B2: fl-FGE-R69A/R72A: human full length FGE variant, Arginine-69 and Arginine-72 converted to Alanine, non-cleavable furin motif, SEQ ID NO:4 (protein)
chain: B1 chain
modifications: double fl FGE variant R69A / R72A
B2: the “stability with added imidazole” value in series [2] (250 mM imidazole, one freeze-thaw cycle, two weeks at −80° C.) is given as “more stable”. For the same molecule, in series [2] (Ni-NTA fractions containing 250-500 mM imidazole, long-term storage −80° C.), the “truncated fragment (~37 kDa) of the total protein after thawing” value was “less than 5%”. The “stability after long-term storage” value in series [2] (Ni-NTA fractions containing 250-500 mM imidazole, −80° C.) is listed as “highly stable”. In series [2] (SEC fraction (imidazole removed), 4° C., 3.5 h or 20 h), the “truncation on prolonged incubation” value was “led to generation of truncated fragments”. The “truncation on incubation with additive” value in series [2] (SEC fraction, 4° C., 250 mM imidazole or 850 mM NaCl) is given as “prevented further increase of FGE truncation”. Further, the “specific activity in presence of the control reductant DTT” value in series [3] (2 mM DTT, 15 min 37° C., pH 9.3, 4 measurements) is recorded as 24.1±1.7 mU/mg. Besides, in series [3] (2 mM DTT), the “pH of maximal activity” value was 9.3 and the “FGly generation in substrate peptide in presence of DTT” value is “is active”. In addition, in series [3] (5 mM GSH), the “pH of maximal activity” value is 9.3. For the same molecule, the “specific activity in presence of GSH” value in series [3] (5 mM reduced glutathione, 15 min 37° C., pH 9.3, 4 measurements) worked out at 15.6±1.3 mU/mg. Also, the “FGly generation using GSH as reductant” value in series [3] (5 mM reduced glutathione, pH 9.3) is reported as “active in presence of GSH”. Besides, in series [3] (pH 9.3), the “dependence of activity on reducing agent (DTT or GSH)” value was “fully functional in the presence of either DTT or glutathione (GSH)” and the “activity in the absence of externally added reducing agents” value is given as “very low activity”. For the same molecule, in series [3], the specific activity came to 33 mU/mg.

B3: monomeric FGE (protein)
chain: B1 chain
For the molecule B3, in series [3], the “DTT concentration of maximal activity” value worked out at 2 mM. Besides, the “DTT concentration for optimal activity under in vitro conditions” value in series [3] (pH 9.3) lay in the range of 1 to 10 mM.

B4: Δ72-FGE (SEQ ID NO: 6), produced in High Five insect cells (protein)
chain: ADLGSSMEFEANAPGPVPGERQLAHSKMVPIPAGVFTMGTDDPQIKQDGEAPARRVTIDAFYMDAYEVSNTEFEKFVNSTGYLTEAEKFGDSFVFEGMLSEQVKTNIQQAVAAAPWWLPVKGANWRHPEGPDSTILHRPDHPVLHVSWNDAVAYCTWAGKRLPTEAEWEYSCRGGLHNRLFPWGNKLQPKGQHYANIWQGEFPVTNTGEDGFQGTAPVDAFPPNGYGLYNIVGNAWEWTSDWWTVHHSVEETLNPKGPPSGKDRVKKGGSYMCHRSYCYRYRCAARSQNTPDSSASNLGFRCAADRLPTMDSGRGSHHHHHHH
As for B4, the “conversion of the Cys substrate peptide to the FGly product peptide (MALDI-ToF MS), DTT as reductant” value in series [4] was “The Δ72-FGE (SEQ ID NO: 6) variant also converts the cysteine-containing substrate peptide to the FGly-containing product peptide in presence of the reductant DTT”.

B5: Δ72-FGE: human FGE that lacks the N-terminal domain (amino acid residues 1-72), SEQ ID NO:6 (protein)
chain: B4 chain
modifications: cleaved FGE in position 72 , inacitve FGE
For B5, the “FGly-generating activity (% substrate turnover) in the presence of GSH normalized to that of DTT (100%)” value in series [5] is “barely active in the presence of GSH”. Moreover, the “molecular integrity after storage” value in series [2] (thawing from −80° C. and short-term storage at 4° C.) was “did not lead to any change in the molecular integrity”. In addition, in series [3] (2 mM DTT), the “pH of maximal activity” value is recorded as around 10 and the “FGly generation in substrate peptide in presence of DTT” value is “converts the cysteine-containing substrate peptide to the FGly-containing product peptide”. Besides, the “dependence of activity on reducing agent (DTT or GSH)” value in series [3] (pH 9.3) is “strictly relies on DTT”. Moreover, the specific activity in series [3] is given as 70-90 mU/mg.
